Test results reported in paper PMC5148612, “Mechanism of cargo-directed Atg8 conjugation during selective autophagy” (eLife, 2016).
Values belong to the binder of their own block, whether it stands above or below them.

B5: GST-prApe1(1–41) + Atg19 (complex, S. cerevisiae)
chain 1: MEEQREILEQLKKTLQMLTVEPSKNNQIANEEKEKKENENS
chain 2: MNNSKTNQQMNTSMGYPLTVYDECNKFQLIVPTLDANIMLWCIGQLSLLNDSNGCKHLFWQPNDKSNVRILLNNYDYGHLFKYLQCQRKCSVYIGEGTLKKYNLTISTSFDNFLDLTPSEEKESLCREDAHEDPVSPKAGSEEEISPNSTSNVVVSRECLDNFMKQLLKLEESLNKLELEQKVTNKEPNHRISGTIDIPEDRSELVNFFTELKTVKQLEDVFQRYHDYERLSQECDSKTEIASDHSKKETKIEVEPPNERSLQITMNQRDNSLYFQLFNNTNSVLAGNCKLKFTDAGDKPTTQIIDMGPHEIGIKEYKEYRYFPYALDLEAGSTIEIENQYGEVIFLGKYGSSPMINLRPPSRLSAESLQASQEPFYSFQIDTLPELDDSSIISTSISLSYDGDDNEKALTWEEL
notes: prApe1, S. cerevisiae, propeptide; Atg19, S. cerevisiae; formed beforehand on the beads; Atg19 as m17; also called cargo mimetic beads; source: purified proteins from E. coli, assembled on glutathione Sepharose beads and washed; not shown: GST, N-terminal, kept

How the values were obtained:
Settings in all cases: both partners purified
GST-prApe1(1–41) + Atg19 = target: B5; test: microscopy-based competition assay on beads; beads with GST-prApe1 propeptide (10 µM) and Atg19 (20 µM), Atg12~Atg5-Atg16-mCherry 5 µM; then GFP-Atg8 5 µM (1x) and 50 µM (10x) (Figure 3G)
GST-Atg19 = target: T1, GST-Atg19 (S. cerevisiae, UniProt P35193 1-415); test: pull-down; GST-fused bait 5 µM and GST-free prey 5 µM with glutathione Sepharose 4B, 1 hr at 4°C; washed with 25 mM HEPES pH 7.5, 150 mM NaCl, 1 mM DTT and 0.1% TritonX100; Western blot (Figures 1A, 1C, 2A, 2C)
T1 construct: Atg19, S. cerevisiae cargo receptor; also called full length GST-Atg19; Atg19 full length; source: E. coli Rosetta pLysS, purified; not shown: GST, N-terminal, kept
T1 sequence (looked up): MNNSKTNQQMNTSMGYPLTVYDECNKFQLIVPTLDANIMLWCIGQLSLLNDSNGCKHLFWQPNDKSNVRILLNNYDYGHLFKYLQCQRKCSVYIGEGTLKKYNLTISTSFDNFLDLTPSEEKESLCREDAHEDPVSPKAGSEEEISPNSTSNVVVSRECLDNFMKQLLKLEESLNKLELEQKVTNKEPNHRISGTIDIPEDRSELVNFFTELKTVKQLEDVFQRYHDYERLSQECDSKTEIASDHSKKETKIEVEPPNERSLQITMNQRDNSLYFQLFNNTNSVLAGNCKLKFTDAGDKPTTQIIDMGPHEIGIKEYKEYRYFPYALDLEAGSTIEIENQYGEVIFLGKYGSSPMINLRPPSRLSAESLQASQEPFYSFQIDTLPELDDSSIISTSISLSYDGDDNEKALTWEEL

Atg19 [1] = target: T2, Atg19 (S. cerevisiae, UniProt P35193 1-415); test: microscopy-based recruitment to cargo mimetic beads; beads with GST-prApe1(1–45) 25 µM, Atg19 15 µM, Atg12~Atg5-Atg16-mCherry 12.5 µM, washed after each step, with ATTO390-containing SUVs (Figure 6, Figure 6—figure supplement 2)
T2 construct: Atg19, S. cerevisiae; printed without a tag; also called Atg19 wild type
T2 sequence (looked up): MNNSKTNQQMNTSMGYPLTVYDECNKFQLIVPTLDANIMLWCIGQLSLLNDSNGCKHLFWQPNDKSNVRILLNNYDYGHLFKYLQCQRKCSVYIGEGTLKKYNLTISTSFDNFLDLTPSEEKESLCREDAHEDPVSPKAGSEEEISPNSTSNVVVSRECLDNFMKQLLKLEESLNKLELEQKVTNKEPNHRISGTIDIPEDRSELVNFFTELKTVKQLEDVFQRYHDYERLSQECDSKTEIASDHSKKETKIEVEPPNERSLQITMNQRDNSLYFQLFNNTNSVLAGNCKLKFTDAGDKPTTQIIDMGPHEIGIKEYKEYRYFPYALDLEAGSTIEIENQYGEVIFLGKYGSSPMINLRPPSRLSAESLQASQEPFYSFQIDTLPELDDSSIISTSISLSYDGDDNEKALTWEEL

mCherry-Atg19 = target: T3, mCherry-Atg19 (S. cerevisiae, UniProt P35193 1-415); test: microscopy-based protein-protein interaction assay on beads; beads with GST-prApe1(1–45) at 5 µM, washed, Atg19 (wild type, mutant or mCherry-Atg19) 5 µM, washed, Atg12~Atg5-Atg16-meGFP 5 µM (Figure 3—figure supplement 2, Figure 6—figure supplement 1)
T3 construct: Atg19, S. cerevisiae; also called 6xHis-mCherry-Atg19; source: E. coli Rosetta pLysS, purified via a hexahistidine tag; not shown: mCherry, N-terminal, kept
T3 sequence (looked up): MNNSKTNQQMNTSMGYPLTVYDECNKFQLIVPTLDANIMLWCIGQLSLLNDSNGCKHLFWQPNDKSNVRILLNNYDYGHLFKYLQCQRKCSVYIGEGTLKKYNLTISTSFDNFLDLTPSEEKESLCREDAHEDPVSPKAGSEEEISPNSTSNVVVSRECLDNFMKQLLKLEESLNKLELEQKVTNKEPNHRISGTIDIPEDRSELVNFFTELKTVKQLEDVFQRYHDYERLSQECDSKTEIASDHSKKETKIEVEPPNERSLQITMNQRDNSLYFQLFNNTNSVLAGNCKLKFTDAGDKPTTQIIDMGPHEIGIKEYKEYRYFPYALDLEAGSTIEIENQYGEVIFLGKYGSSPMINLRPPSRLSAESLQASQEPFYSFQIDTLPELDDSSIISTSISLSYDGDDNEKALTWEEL

[2] = target: T4, Atg12~Atg5-Atg16-mCherry complex (S. cerevisiae, UniProt P38316 1-186; Q12380 1-294; Q03818 1-150, conjugated to Atg5 (Atg12~Atg5 protein conjugate) | conjugated to Atg12); test: microscopy-based recruitment to cargo mimetic beads; beads with GST-prApe1(1–45) 25 µM, Atg19 15 µM, Atg12~Atg5-Atg16-mCherry 12.5 µM, washed after each step, with ATTO390-containing SUVs (Figure 6, Figure 6—figure supplement 2)
T4 construct: Atg12, S. cerevisiae; Atg5, S. cerevisiae; Atg16, S. cerevisiae; also called Cx; source: E. coli Rosetta pLysS; Atg12~Atg5 conjugate mixed 1:1 with purified Atg16-mCherry, purified by size exclusion chromatography; not shown: His6, N-terminal, cleaved; mCherry, C-terminal, kept; copies: + +
T4 sequence (looked up) 1: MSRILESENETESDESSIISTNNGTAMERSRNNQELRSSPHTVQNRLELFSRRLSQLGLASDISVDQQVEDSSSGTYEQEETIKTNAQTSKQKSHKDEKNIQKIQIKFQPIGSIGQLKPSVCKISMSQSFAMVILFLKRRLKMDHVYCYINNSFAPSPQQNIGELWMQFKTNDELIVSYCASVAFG
T4 sequence (looked up) 2: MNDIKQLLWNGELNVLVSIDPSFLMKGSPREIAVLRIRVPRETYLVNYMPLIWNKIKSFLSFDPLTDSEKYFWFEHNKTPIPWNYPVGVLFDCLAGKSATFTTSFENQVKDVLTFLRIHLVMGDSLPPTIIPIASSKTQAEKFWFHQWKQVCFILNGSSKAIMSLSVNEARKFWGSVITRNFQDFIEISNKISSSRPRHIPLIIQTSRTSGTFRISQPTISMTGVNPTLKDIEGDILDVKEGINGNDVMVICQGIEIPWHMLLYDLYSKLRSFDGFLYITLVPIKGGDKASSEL
T4 sequence (looked up) 3: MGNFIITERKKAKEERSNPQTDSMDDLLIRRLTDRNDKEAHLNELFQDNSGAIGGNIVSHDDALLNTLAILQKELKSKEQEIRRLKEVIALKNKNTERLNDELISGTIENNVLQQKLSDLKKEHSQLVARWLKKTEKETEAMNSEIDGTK

[3] = target: T5, Atg12~Atg5-Atg16-meGFP complex (S. cerevisiae, UniProt P38316 1-186; Q12380 1-294; Q03818 1-150, conjugated to Atg5 (Atg12~Atg5 protein conjugate) | conjugated to Atg12); test: microscopy-based protein-protein interaction assay on beads; beads with GST-prApe1(1–45) at 5 µM, washed, Atg19 (wild type, mutant or mCherry-Atg19) 5 µM, washed, Atg12~Atg5-Atg16-meGFP 5 µM (Figure 3—figure supplement 2, Figure 6—figure supplement 1)
T5 construct: Atg12, S. cerevisiae; Atg5, S. cerevisiae; Atg16, S. cerevisiae; called -eGFP in one legend and -meGFP in the methods; also called Atg12~Atg5-Atg16-eGFP; source: E. coli Rosetta pLysS, purified; not shown: meGFP, C-terminal, kept; copies: + +
T5 sequence (looked up) 1: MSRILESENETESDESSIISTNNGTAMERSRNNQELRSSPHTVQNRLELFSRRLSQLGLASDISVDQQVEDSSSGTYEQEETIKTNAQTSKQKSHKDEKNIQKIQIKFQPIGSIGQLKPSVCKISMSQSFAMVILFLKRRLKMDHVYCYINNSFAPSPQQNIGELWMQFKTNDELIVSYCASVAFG
T5 sequence (looked up) 2: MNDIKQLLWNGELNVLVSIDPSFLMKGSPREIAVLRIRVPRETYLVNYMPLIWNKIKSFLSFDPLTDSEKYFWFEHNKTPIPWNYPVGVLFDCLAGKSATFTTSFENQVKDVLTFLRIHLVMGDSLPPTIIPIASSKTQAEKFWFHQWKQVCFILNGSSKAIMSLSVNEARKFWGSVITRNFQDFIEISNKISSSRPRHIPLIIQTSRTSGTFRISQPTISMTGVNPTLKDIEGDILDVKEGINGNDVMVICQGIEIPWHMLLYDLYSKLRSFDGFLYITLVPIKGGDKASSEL
T5 sequence (looked up) 3: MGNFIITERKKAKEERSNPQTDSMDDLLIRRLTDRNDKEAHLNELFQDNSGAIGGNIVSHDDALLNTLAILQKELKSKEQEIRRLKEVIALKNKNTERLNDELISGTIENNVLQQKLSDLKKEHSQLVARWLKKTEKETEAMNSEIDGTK

[4] = target: T4, Atg12~Atg5-Atg16-mCherry complex; test: microscopy-based competition assay on beads; beads with GST-prApe1 propeptide (10 µM) and Atg19 (20 µM), Atg12~Atg5-Atg16-mCherry 5 µM; then GFP-Atg8 5 µM (1x) and 50 µM (10x) (Figure 3G)
Atg19 [5] = target: T2, Atg19; test: microscopy-based protein-protein interaction assay on beads; beads with GST-prApe1(1–41) at 25 µM, washed, Atg19 15 µM, washed, Atg12~Atg5-Atg16-mCherry (wild type and mutants) 8.8 µM (Figure 5B, C)

B1: GFP-Atg8∆R117 (natural protein, S. cerevisiae, UniProt P38182 1-116, looked up)
chain: MKSTFKSEYPFEKRKAESERIADRFKNRIPVICEKAEKSDIPEIDKRKYLVPADLTVGQFVYVIRKRIMLPPEKAIFIFVNDTLPPTAALMSAIYQEHKDKDGFLYVTYSGENTFG
notes: Atg8, S. cerevisiae, without its last residue R117; also called meGFP-Atg8∆R117; 6xHis-meGFP-Atg8∆R117; source: E. coli Rosetta pLysS, purified; not shown: meGFP, N-terminal, kept
binding result (GST-prApe1(1–41) + Atg19): binds

B2: Atg5-Atg16 (1–46) (complex, S. cerevisiae)
chain 1: MNDIKQLLWNGELNVLVSIDPSFLMKGSPREIAVLRIRVPRETYLVNYMPLIWNKIKSFLSFDPLTDSEKYFWFEHNKTPIPWNYPVGVLFDCLAGKSATFTTSFENQVKDVLTFLRIHLVMGDSLPPTIIPIASSKTQAEKFWFHQWKQVCFILNGSSKAIMSLSVNEARKFWGSVITRNFQDFIEISNKISSSRPRHIPLIIQTSRTSGTFRISQPTISMTGVNPTLKDIEGDILDVKEGINGNDVMVICQGIEIPWHMLLYDLYSKLRSFDGFLYITLVPIKGGDKASSEL
chain 2: MGNFIITERKKAKEERSNPQTDSMDDLLIRRLTDRNDKEAHLNELF
notes: Atg5, S. cerevisiae; Atg16, S. cerevisiae, first 46 amino acids; the His tag of Atg5 is followed by a TEV site; also called Atg5 stabilized with the N-terminal helix of Atg16; Atg5-Atg16 (1–46) wild type; source: E. coli, co-expressed and purified in complex
binding result (GST-Atg19): binds

Binder: B5
binding result [4]: binds

The remaining lines, values ahead:

binding result (Atg19 [1]): binds | binding result (mCherry-Atg19): binds
B3: GST-prApe1(1–45) (domain or fragment, S. cerevisiae, UniProt P14904 1-45, looked up)
chain: MEEQREILEQLKKTLQMLTVEPSKNNQIANEEKEKKENENSWCIL
notes: prApe1 (precursor aminopeptidase 1), S. cerevisiae, propeptide; also called prApe1 propeptide; cargo mimetic beads; source: E. coli Rosetta pLysS, purified; not shown: GST, N-terminal, kept

binding result [2]: binds | binding result [3]: binds
B4: GST-prApe1(1–45) + Atg19 (complex, S. cerevisiae)
chain 1: MEEQREILEQLKKTLQMLTVEPSKNNQIANEEKEKKENENSWCIL
chain 2: MNNSKTNQQMNTSMGYPLTVYDECNKFQLIVPTLDANIMLWCIGQLSLLNDSNGCKHLFWQPNDKSNVRILLNNYDYGHLFKYLQCQRKCSVYIGEGTLKKYNLTISTSFDNFLDLTPSEEKESLCREDAHEDPVSPKAGSEEEISPNSTSNVVVSRECLDNFMKQLLKLEESLNKLELEQKVTNKEPNHRISGTIDIPEDRSELVNFFTELKTVKQLEDVFQRYHDYERLSQECDSKTEIASDHSKKETKIEVEPPNERSLQITMNQRDNSLYFQLFNNTNSVLAGNCKLKFTDAGDKPTTQIIDMGPHEIGIKEYKEYRYFPYALDLEAGSTIEIENQYGEVIFLGKYGSSPMINLRPPSRLSAESLQASQEPFYSFQIDTLPELDDSSIISTSISLSYDGDDNEKALTWEEL
notes: prApe1, S. cerevisiae, propeptide; Atg19, S. cerevisiae; formed beforehand on the beads; Atg19 as m17; source: purified proteins from E. coli, assembled on glutathione Sepharose beads and washed; not shown: GST, N-terminal, kept

binding result (Atg19 [5]): binds
B6: GST-prApe1(1–41) (domain or fragment, S. cerevisiae, UniProt P14904 1-41, looked up)
chain: MEEQREILEQLKKTLQMLTVEPSKNNQIANEEKEKKENENS
notes: prApe1, S. cerevisiae, propeptide; also called prApe1 propeptide; source: E. coli Rosetta pLysS, purified as a GST fusion protein; not shown: GST, N-terminal, kept
